# B1: Hairpin Ribozyme (parent)
# chain: GUCCUCUUUCACGUGCGCGUGAAAGAGAGAAGUGAACCAGAGAAACACACGUUGUGGUAUAUUACCUGGUA
# Variants of: B1
# Experiment: self-cleavage, relative activity (ratio to wild type); higher = more cleavage; co-transcriptional
row,Variant,self-cleavage
1,GUGCUCUUUCACGUGCGCGUGAAAGAGAGAAGUGAACCACAGAAACACACGUUGUGGUAUAUUACCUGGUA [C3G G40C],0.147
2,GUGCUCUUUCACGUGCGCGUGAAAGAGAGAAGUGAACCAAAGAAACACACGUUGUGGUAUAUUACCUGGUA [C3G G40A],0.0852
3,GUGCUCUUUCACGUGCGCGUGAAAGAGAGAAGUGAACCAUAGAAACACACGUUGUGGUAUAUUACCUGGUA [C3G G40U],0.0655
4,GUGCUCUUUCACGUGCGCGUGAAAUAGAGAAGUGAACCAGAGAAACACACGUUGUGGUAUAUUACCUGGUA [C3G G25U],0.138
5,GUGCUCUUUCACGUGCGCGUGAAAAAGAGAAGUGAACCAGAGAAACACACGUUGUGGUAUAUUACCUGGUA [C3G G25A],0.146
6,GUGCUCUUUCACGUGCGCGCGAAAGAGAGAAGUGAACCAGAGAAACACACGUUGUGGUAUAUUACCUGGUA [C3G U20C],0.302
7,GUGCUCUUUCACGUGCGCGUGAAAGAGAGAAGUGAACGAGAGAAACACACGUUGUGGUAUAUUACCUGGUA [C3G C38G],0.0857
8,GUGCUCUUUCACGUGCGCGUGAAAGAGAGAAGUGAACUAGAGAAACACACGUUGUGGUAUAUUACCUGGUA [C3G C38U],0.133
9,GUGCUCUUUCACGUGCGCGUGAAAGAGCGAAGUGAACCAGAGAAACACACGUUGUGGUAUAUUACCUGGUA [C3G A28C],0.541
10,GUGCUCUUUCACGUGCGCGUGAAAGAGGGAAGUGAACCAGAGAAACACACGUUGUGGUAUAUUACCUGGUA [C3G A28G],0.362
11,GUGCUCUUUCACGUGCGCGUGACAGAGAGAAGUGAACCAGAGAAACACACGUUGUGGUAUAUUACCUGGUA [C3G A23C],0.194
12,GUUCUCUUUCACGUGCGCGUGAAUGAGAGAAGUGAACCAGAGAAACACACGUUGUGGUAUAUUACCUGGUA [C3U A24U],0.491
13,GUUCUCUUUCACGUGCGCGUGAAGGAGAGAAGUGAACCAGAGAAACACACGUUGUGGUAUAUUACCUGGUA [C3U A24G],0.494
14,GUGGUCUUUCACGUGCGCGUGAAAGAGAGAAGUGAACCAGAGAAACACACGUUGUGGUAUAUUACCUGGUA [C3G C4G],0.244
15,GUGCUCUUUCUCGUGCGCGUGAAAGAGAGAAGUGAACCAGAGAAACACACGUUGUGGUAUAUUACCUGGUA [C3G A11U],0.28
16,GUGCUCUUUCACGUGCGCGUGAAAGAGAGAAGUCAACCAGAGAAACACACGUUGUGGUAUAUUACCUGGUA [C3G G34C],0.911
17,GUGCUCUUUCACGUGCGCGUGAAAGAGAGAAGUGAACCAGAGAAACACACGUUGUGGUAUAUUACUUGGUA [C3G C66U],0.251
18,GUGCUCUUUCACGUGCGCGUGAAAGAGAGAAGUGAACCAGAGAAACACAAGUUGUGGUAUAUUACCUGGUA [C3G C50A],0.0499
19,GUGCUCUUUCACGUGCGCGUGAAAGAGAGAAGUGAACCAGAGAAACACAUGUUGUGGUAUAUUACCUGGUA [C3G C50U],0.13
20,GUGCUCUUUCACGUGCGCGUGAAAGAGAGAAGUGAACCAGAGAAACACACGUUGUGGUAUAUUACCUGGGA [C3G U70G],0.272
21,GUGCUCUUUCACGUACGCGUGAAAGAGAGAAGUGAACCAGAGAAACACACGUUGUGGUAUAUUACCUGGUA [C3G G15A],0.281
22,GUGCUCUUUCACGUGCUCGUGAAAGAGAGAAGUGAACCAGAGAAACACACGUUGUGGUAUAUUACCUGGUA [C3G G17U],0.365
23,GUGCUCUUUCACGUGCGCGUUAAAGAGAGAAGUGAACCAGAGAAACACACGUUGUGGUAUAUUACCUGGUA [C3G G21U],0.252
24,GUGCUCUUUCACGUGCGCGUGAAAGUGAGAAGUGAACCAGAGAAACACACGUUGUGGUAUAUUACCUGGUA [C3G A26U],0.214
25,GUGCUCUUUCACGUGCGCGUGAAAGAGAGAAGGGAACCAGAGAAACACACGUUGUGGUAUAUUACCUGGUA [C3G U33G],0.156
26,GUGCUCUUUCACGUGCGCGUGAAAGAGAGAAGCGAACCAGAGAAACACACGUUGUGGUAUAUUACCUGGUA [C3G U33C],0.143

row,Variant,self-cleavage
1,GUGCUCUUUCACGUGCGCGUGAAAGAGAGAUGUGAACCAGAGAAACACACGUUGUGGUAUAUUACCUGGUA [C3G A31U],0.057
2,GUGCUCUUUCACGUGCGCGUGAAAGAGAGACGUGAACCAGAGAAACACACGUUGUGGUAUAUUACCUGGUA [C3G A31C],0.0694
3,GUGCUCUUUCACGUGCGCGUGAAAGAGAGAGGUGAACCAGAGAAACACACGUUGUGGUAUAUUACCUGGUA [C3G A31G],0.0813
4,GUGCUCUUUCACGUGCGCGUGAAAGAGAGAAGUGAACCAGAGAAACACACGUUGUGGUAUAUUACCUCGUA [C3G G68C],0.188
5,GUGCUCUUUCACGUGCGCGUGAAAGAGAGAAGUGAACCAGAGAAACACACGUUGUGGUAUUUUACCUGGUA [C3G A61U],0.0942
6,GUGCUCUUUCACGUGCGCGUGAAAGAGAGAAGUGAACCAGAGAAACACACGUUGUGGUAUGUUACCUGGUA [C3G A61G],0.0947
7,GUGCUCUUUCACUUGCGCGUGAAAGAGAGAAGUGAACCAGAGAAACACACGUUGUGGUAUAUUACCUGGUA [C3G G13U],0.259
8,GUGCUCUUUCACGUGCGCGUGAAAGAGAGUAGUGAACCAGAGAAACACACGUUGUGGUAUAUUACCUGGUA [C3G A30U],0.118
9,GUGCUCUUUCACGUGCGCGUGAAAGAGAGCAGUGAACCAGAGAAACACACGUUGUGGUAUAUUACCUGGUA [C3G A30C],0.0439
10,GUGCCCUUUCACGUGCGCGUGAAAGAGAGAAGUGAACCAGAGAAACACACGUUGUGGUAUAUUACCUGGUA [C3G U5C],0.132
11,GUUCUCUUUCACGUGCGCGUGCAAGAGAGAAGUGAACCAGAGAAACACACGUUGUGGUAUAUUACCUGGUA [C3U A22C],0.491
12,GUUCUCUUUCACGUGCGCGUGGAAGAGAGAAGUGAACCAGAGAAACACACGUUGUGGUAUAUUACCUGGUA [C3U A22G],0.603
13,GUACUCUUUCACGUGCGCGUGAAAGAGAGAAGUGAACCAGAGAAACACACGUUGUGGUAUAGUACCUGGUA [C3A U62G],0.101
14,GUACUCUUUCACGUGCGCGUGAAAGAGAGAAGUGAACCAGAGAAACACACGUUGUGGUAUAAUACCUGGUA [C3A U62A],0.184
15,GUGCUCUUUCACGUGCGCGUGAAAGAGAGAAGUGAACCAGAGAAACACACGAUGUGGUAUAUUACCUGGUA [C3G U52A],0.332
16,GUGCUCGUUCACGUGCGCGUGAAAGAGAGAAGUGAACCAGAGAAACACACGUUGUGGUAUAUUACCUGGUA [C3G U7G],0.281
17,GUGCUCUUUCACGUGCGCGUGAAAGAGAGAAGUGAACCAGAGCAACACACGUUGUGGUAUAUUACCUGGUA [C3G A43C],0.168
18,GUGCUCUUUCACGUGCGCGUGAAAGAGAGAAGUGAACCAGAGUAACACACGUUGUGGUAUAUUACCUGGUA [C3G A43U],0.111
19,GUGCUCUUUCACGUGCGCGUGAAAGAGAGAAGUGAACCAGAGGAACACACGUUGUGGUAUAUUACCUGGUA [C3G A43G],0.0516
20,GUGCUCUCUCACGUGCGCGUGAAAGAGAGAAGUGAACCAGAGAAACACACGUUGUGGUAUAUUACCUGGUA [C3G U8C],0.166
21,GUGCUCUUUCACGUGCGCGUGAAAGAGAGAAGUGAACCAGAGAAACACACGUUGUGGUAUAUUACCUGUUA [C3G G69U],0.141
22,GUGCUCUUUCACGUGCGCGUGAAAGAGAGAAGUGAACCAGAGACACACACGUUGUGGUAUAUUACCUGGUA [C3G A44C],0.153
23,GUGCUCUUUCACGUGCGCGUGAAGGAGAGAAGUGAACCAGAGAAACACACGUUGUGGUAUAUUACCUGGUA [C3G A24G],0.294
24,GUGCUCUUUCACGUGCGCGUGAAUGAGAGAAGUGAACCAGAGAAACACACGUUGUGGUAUAUUACCUGGUA [C3G A24U],0.248
25,GUGCUCUUUCACGUGCGCGUGAACGAGAGAAGUGAACCAGAGAAACACACGUUGUGGUAUAUUACCUGGUA [C3G A24C],0.238
26,GUGCUCUUUCACGUGCGCGUGAAAGAGAGAAUUGAACCAGAGAAACACACGUUGUGGUAUAUUACCUGGUA [C3G G32U],0.141

row,Variant,self-cleavage
1,GUGCUCUUUCACGUGCGCGUGAAAGAGAGAACUGAACCAGAGAAACACACGUUGUGGUAUAUUACCUGGUA [C3G G32C],0.0586
2,GUACUCUUUCACGUGCGCGUGAAAGAGAGAAGUGAACCAGAGAAACACACGUUGUGGUAGAUUACCUGGUA [C3A U60G],0.338
3,GUGCUCUUUCACGUGCGCGUGAAAGAGAGAAGUGAACCAGAGAAACACGCGUUGUGGUAUAUUACCUGGUA [C3G A49G],0.148
4,GUGCUCUUUCACGUGCGCGUGAAAGAGAAAAGUGAACCAGAGAAACACACGUUGUGGUAUAUUACCUGGUA [C3G G29A],0.148
5,GUGCUCUUUCACGUGCGCGUGAAAGAUAGAAGUGAACCAGAGAAACACACGUUGUGGUAUAUUACCUGGUA [C3G G27U],0.164
6,GUGCUCUUUCACGUGCGCGUGAAAGAGAGAAGUGAACCAGAGAAACACACGUUAUGGUAUAUUACCUGGUA [C3G G54A],0.177
7,GUGCUCUUUCACGUGCGCGUGAAAGAGAGAAGUGAUCCAGAGAAACACACGUUGUGGUAUAUUACCUGGUA [C3G A36U],0.174
8,GUGCUCUUUCACGUGCGCGUGAAAGAGAGAAGUGAACCAGAUAAACACACGUUGUGGUAUAUUACCUGGUA [C3G G42U],0.188
9,GUACUCUUUCACGUGCGCGUGAAAGAGAGAAGUGAACCAGAGAAACACACGUUGUGGUAUAUGACCUGGUA [C3A U63G],0.174
10,GUACUCUUUCACGUGCGCGUGAAAGAGAGAAGUGAACCAGAGAAACACACGUUGUGGUAUAUCACCUGGUA [C3A U63C],0.154
11,GUGCUCUUUCACGUGCGUGUGAAAGAGAGAAGUGAACCAGAGAAACACACGUUGUGGUAUAUUACCUGGUA [C3G C18U],0.341
12,GUGCUCUUUCACGUGCGGGUGAAAGAGAGAAGUGAACCAGAGAAACACACGUUGUGGUAUAUUACCUGGUA [C3G C18G],0.34
13,GUGCUCUUUUACGUGCGCGUGAAAGAGAGAAGUGAACCAGAGAAACACACGUUGUGGUAUAUUACCUGGUA [C3G C10U],0.213
14,GUACUCUUUCACGUGCGCGUGAAAGAGAGAAGUGAACCAGAGAAACACACGUUGUGGUAUAUUACCCGGUA [C3A U67C],0.155
15,GUGCUCUUUCACGUGCGCGUGAAAGAGAGAAGUGAACCAGAGAAACGCACGUUGUGGUAUAUUACCUGGUA [C3G A47G],0.179
16,GUGCUCUUUCACGCGCGCGUGAAAGAGAGAAGUGAACCAGAGAAACACACGUUGUGGUAUAUUACCUGGUA [C3G U14C],0.238
17,GUGCUCUUGCACGUGCGCGUGAAAGAGAGAAGUGAACCAGAGAAACACACGUUGUGGUAUAUUACCUGGUA [C3G U9G],0.0419
18,GUGCUCUUUCACGUGUGCGUGAAAGAGAGAAGUGAACCAGAGAAACACACGUUGUGGUAUAUUACCUGGUA [C3G C16U],0.305
19,GUGCUCUUUCACGUGCGCGUGAAAGAGAGAAGUGAACCAGAGAAACACACGUUGUGGUAGAUUACCUGGUA [C3G U60G],0.0943
20,GUUCUCUUUCACGUGCGCGUGAAAGUGAGAAGUGAACCAGAGAAACACACGUUGUGGUAUAUUACCUGGUA [C3U A26U],0.27
21,GUGCUCUUUCACGUGCGCGUGAAAGAGAGAAGUGAACCAGAGAAACACACGUUGUGGGAUAUUACCUGGUA [C3G U58G],0.0994
22,GUGCUCUUUCACGUGCGCGUGAAAGAGAGAAGUGAACCAGAGAAACACACGUUGUGGCAUAUUACCUGGUA [C3G U58C],0.311
23,GUGCUCUUUCACGUGCGCGUGAAAGAGAGAAGUGAACCAGAGAAACACACGUUGUGGUCUAUUACCUGGUA [C3G A59C],0.064
24,GUGCUCUUUCACGUGCGCGUGCAAGAGAGAAGUGAACCAGAGAAACACACGUUGUGGUAUAUUACCUGGUA [C3G A22C],0.227
